Results as given in patent KR20190140944A.
pKd: −log10 of the molar value.

Tests used:
[1] = target: HER2 및 HER3 (ErbB-2 및 ErbB-3 양성 세포 상에 함께 발현) (human) (UniProt P04626); test: steady-state cell affinity, 125I-labelled IgG on BT-474 cells at 4 C; mean of 3 assays
[2] = target: HER2 및 HER3 (ErbB-2 및 ErbB-3 양성 세포 상에 함께 발현) (human) (UniProt P04626); test: steady-state cell affinity, 125I-labelled IgG on SK-BR-3 cells at 4 C; mean of 3 assays

pKd [1]: 8.49
pKd [2]: 8.70
Substance: PB4188 (bispecific antibody)
